{"source": "patent EP3912994A1", "about": "(Université de Strasbourg, dated 2021)", "binders": {"B1": {"name": "fibronectin type III domains 4-6 of human fibronectin (double Strep-tagged) (other, UniProt P02751 909-1175, looked up, not shown: small tags and cut ends)", "chain": "SPRDLQFVEVTDVKVTIMWTPPESAVTGYRVDVIPVNLPGEHGQRLPISRNTFAEVTGLSPGVTYYFKVFAVSHGRESKPLTAQQTTKLDAPTNLQFVNETDSTVLVRWTPPRAQITGYRLTVGLTRRGQPRQYNVGPSVSKYPLRNLQPASEYTVSLVAIKGNQESPKATGVFTTLQPGSSIPPYNTEVTETTIVITWTPAPRIGFKLGVRPSQGGEAPREVTSDSGSIVVSGLTPGVEYVYTIQVLRDGQERDAPIVNKVVTPLS", "notes": "range 909-1175; Biotinylated with Biotin-Ahx-NHS for the ELISA on TN1-5; also called FN4-6"}}, "molecular_target": "T1, fibronectin type III domains 1-5 of human tenascin-C (human, UniProt P24821 625-1075)", "T1 construct": "range 625-1075; Expressed in HEK293 cells, purified on Streptactin XT; coated on the ELISA plate; also called TN1-5", "T1 sequence (looked up)": "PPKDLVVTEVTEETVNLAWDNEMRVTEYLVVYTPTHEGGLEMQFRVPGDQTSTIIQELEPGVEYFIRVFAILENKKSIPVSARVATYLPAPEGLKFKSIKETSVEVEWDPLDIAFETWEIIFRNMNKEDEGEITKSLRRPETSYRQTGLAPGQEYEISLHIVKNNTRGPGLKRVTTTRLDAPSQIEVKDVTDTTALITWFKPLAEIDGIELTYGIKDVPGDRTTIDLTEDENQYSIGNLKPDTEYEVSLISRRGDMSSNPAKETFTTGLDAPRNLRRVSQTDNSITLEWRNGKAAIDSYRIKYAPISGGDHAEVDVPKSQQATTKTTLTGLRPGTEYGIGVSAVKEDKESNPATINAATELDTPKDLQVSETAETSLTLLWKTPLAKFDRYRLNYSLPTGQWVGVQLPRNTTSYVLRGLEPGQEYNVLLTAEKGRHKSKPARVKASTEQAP", "assay": "ELISA, TN1-5 coated, biotinylated FN4-6 titrated 1 nM to 1 µM", "data": [{"binder": "B1", "values": [{"measurement": "Kd", "result": 44, "unit": "nM"}]}]}
